Measurements reported in the supplement of paper PMC12764529.
± gives the half width of the 95% confidence interval.

Key:
[1] = folding stability dG unfold from chymotrypsin proteolysis; higher = more stable
Summary of the method: (§1)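 Sequencing followed digestion of designed mini-proteins with trypsin and chymotrypsin, each at 11 concentrations in threefold dilutions together with a no-protease condition. The mini-proteins were under 80 residues, had no cysteine, sat in a PA-tagged cDNA display construct, and were kept only if AlphaFold2 dimer inter-PAE was above 15. From the counts, Bayesian fitting gave K50, and unfolding free energy was derived against a sequence-predicted unfolded-state K50 and a shared folded-state K50, per protease or combined.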

[2] = folding stability dG unfold (combined trypsin and chymotrypsin); higher = more stable
Summary of the method: as §1

[3] = folding stability dG unfold from trypsin proteolysis; higher = more stable
Summary of the method: as §1

Sequence | folding stability dG unfold [1] | folding stability dG unfold [2] | folding stability dG unfold [3]
SAGGSMRLVERTFVPVKTFTFLSTFNLIQPPGVPVPTFTTLTVVFTPVFTRLVEVVTEPPGRVVEVLLSAGG [r13_148_JUSTAS] | 4.33 ± 0.13 kcal/mol | 4.06 ± 0.21 kcal/mol | 3.73 ± 0.15 kcal/mol
SAGGSMSLEEIKKLEIELEKEEGEKLKAEVTVLPDGKLFVRVNGKLFEIDLKTGKIVEVKELPPDESAGGSA [r2_374_TrROS_Hall] | 2.38 ± 0.057 kcal/mol | 2.47 ± 0.21 kcal/mol | 2.49 ± 0.19 kcal/mol
SAGGSMSPEEKARKLAEELRKKLPPGAKVRIKVEVDGKTYEIEIEPGEEIEFPPGEKVKIVEIEVESAGGSA [r2_391_TrROS_Hall] | 2.82 ± 0.2 kcal/mol | 2.98 ± 0.3 kcal/mol | 3.12 ± 0.16 kcal/mol
SAGGSMTAPVKVLIKVPPNIPLSDIVKKLSAIPGIGAKPISYDPETGYALVDIGATDPEALKEAIGSAGGSA [r2_305_TrMRF] | 2 ± 0.029 kcal/mol | 1.9 ± 0.057 kcal/mol | 1.67 ± 0.057 kcal/mol
SAGGSMTFEIVEVTYDEETDEVTVRVRLPNGEVVTLSAEEIEKAIKEGKTITFTLENGEKLEIEVLSAGGSA [r2_301_TrROS_Hall] | 2.58 ± 0.03 kcal/mol | 2.27 ± 0.084 kcal/mol | 1.49 ± 0.038 kcal/mol
SAGGSMTLEEKSEEDYIIRYVEKGDTYSLIKINPNTGTAEVTTFKPGGVPSKTTYKIPKGKELKVTGSAGGS [r8_11_JUSTAS] | 0.726 ± 0.12 kcal/mol | 0.481 ± 0.079 kcal/mol | -0.0399 ± 0.11 kcal/mol
SAGGSMTLRLPVPEDVEVVEVTAEVPDPETGKVYVFRSRARVVPYKDGVYLTVDLDPDGRSYGFDPSAGGSA [r2_123_TrMRF] | 0.56 ± 0.12 kcal/mol | 0.835 ± 0.059 kcal/mol | 1.07 ± 0.096 kcal/mol
SAGGSMTLTFTDPSTGTTTTVTKLPNGKYVVTTTTTTSTNPEVSPTGETVGPATTTTTTVLPPAELSAGGSA [r2_195_JUSTAS] | 1.79 ± 0.024 kcal/mol | 1.86 ± 0.065 kcal/mol | 2 ± 0.12 kcal/mol
SAGGSMTLTGESEEEAKALVEALKEELKKKYPEKPNLEIPVKVIIKDPKTGKETEKVFKVKIPIPKSAGGSA [r2_393_JUSTAS] | 1.11 ± 0.09 kcal/mol | 1.14 ± 0.062 kcal/mol | 1.04 ± 0.028 kcal/mol
SAGGSMTLTIEVDGKTVEITEVREKEDGEKVVRIRVTTPDGEEKEIEMTLDELAEILGLSKEELEPSAGGSA [r2_262_TrROS_Hall] | 2.67 ± 0.085 kcal/mol | 3.27 ± 0.18 kcal/mol | 3.75 ± 0.19 kcal/mol
SAGGSMTTTTEDKGDGRIVTTTIPEEGTVVTTTIFYEPGGPKVETKTTTTPVPPLPSTVVTSPNLASAGGSA [r2_375_JUSTAS] | 1.15 ± 0.13 kcal/mol | 0.937 ± 0.34 kcal/mol | 0.572 ± 0.093 kcal/mol
SAGGSMVLLSEETIGDIKIKTYKDPNGGVITVIEKPGERTIEFIYPDGILTIEFPPDGTKKYSFDPIGSAGG [r13_246_JUSTAS] | 2.32 ± 0.071 kcal/mol | 2.29 ± 0.1 kcal/mol | 2.01 ± 0.049 kcal/mol
SAGGSMVLTLEEESEEGVLRVTELHFYPGEVTVTTRTFEIAPDGSVRSATESTTVIPVPPSALAEASAGGSA [r2_474_JUSTAS] | 2.33 ± 0.038 kcal/mol | 1.96 ± 0.1 kcal/mol | 1.37 ± 0.051 kcal/mol
SAGGSMVLVRVERTPDGTLRVTALFFFDGRLLRVERTFRLAPDGRIVDADVSVEELPVPPSEVPVLSAGGSA [r2_474_TrMRF] | 4.45 ± 0.071 kcal/mol | 4.11 ± 0.099 kcal/mol | 3.39 ± 0.16 kcal/mol
SAGGSMVTLTTTETSVEGERTVEVSTLGSKTVTTTFEPESDSSTVTTSPVPPVAGPELLALNLLLLSAGGSA [r2_482_JUSTAS] | -0.102 ± 0.18 kcal/mol | 0.189 ± 0.082 kcal/mol | 0.291 ± 0.079 kcal/mol
SAGGSMVVVPVEVTVPPEELEQYLEDLRAAYEKPGVKVEILPVEREPIRDPAGRVEEVRAKATIKIVPSAGG [r13_707_JUSTAS] | 0.522 ± 0.042 kcal/mol | 0.207 ± 0.08 kcal/mol | -0.511 ± 0.21 kcal/mol

Sequence | folding stability dG unfold [1] | folding stability dG unfold [2] | folding stability dG unfold [3]
SAGGSMYLIRITVRNKDGEEVLTIERRVRLEDGKSLEEVAEELRRALESLPNLEVVDVEVVPLEELSAGGSA [r2_192_TrROS_Hall] | 3.797 ± 0.019 kcal/mol | 3.99 ± 0.058 kcal/mol | 4.3 ± 0.072 kcal/mol
SAGGSNVVEVEVEELPDGTVVLRVRVLRLLPNGELGGVVERPFVFPRELFENIPLEEIVRRAVEEGSAGGSA [r2_421_TrMRF] | 3.758 ± 0.032 kcal/mol | 3.63 ± 0.072 kcal/mol | 3.39 ± 0.081 kcal/mol
SAGGSPDPNQKPVTVRVEIMIMRPDPNGKWEMRPIEFEMTIGDVEEFLEELEKEPGYMIMVDIEIYSAGGSA [r2_270_TrROS] | 3.97 ± 0.25 kcal/mol | 3.65 ± 0.28 kcal/mol | 2.33 ± 0.13 kcal/mol
SAGGSPEIPKDYEVIEIDAETLPDGSVLIPIIVRDPIIPYYLKMYYRSIPTRWEPISFELIHPDELSAGGSA [r2_371_TrMRF] | 1.61 ± 0.085 kcal/mol | 1.45 ± 0.057 kcal/mol | 1.25 ± 0.018 kcal/mol
SAGGSPEQARRWAKYIAETRAGENGWEVEDVEVEQHPGGYVEASIDVQFPDGKKREITITIPPGDPFSAGGS [r8_175_TrROS] | -0.361 ± 0.81 kcal/mol | -0.447 ± 0.55 kcal/mol | -0.149 ± 0.54 kcal/mol
SAGGSPFKKETFEFENVKVEVYRLPGPYALALLEVEVSGEPVYYVAVFKLGPDNKLEVVSFGPVDLSAGGSA [r2_171_TrMRF] | 2.85 ± 0.031 kcal/mol | 2.78 ± 0.053 kcal/mol | 2.63 ± 0.054 kcal/mol
SAGGSPGIKIEIWFMIMFPVKPDPDNGKPRWYMIMVSPKMWYDPEPGGMQIEIDINIMPLGDPEAFSAGGSA [r2_489_TrROS] | 3.6 ± 0.038 kcal/mol | 3.41 ± 0.21 kcal/mol | 3.2 ± 0.16 kcal/mol
SAGGSPIKPITFEFPNIKVTVYRMPNKYIMVHIEFRENGEPYYLMITFKLDPDNKLKATSIGPMPPSAGGSA [r2_171_TrROS] | 4.537 ± 0.037 kcal/mol | 4.01 ± 0.093 kcal/mol | 2.69 ± 0.1 kcal/mol
SAGGSPMTITMWFPVDSVEQAKDLINPNFPDYDVKVDNIKPENGWVRVKYTWPNGKPQEREIPIKKSAGGSA [r2_201_TrROS] | 0.324 ± 0.38 kcal/mol | 0.147 ± 0.39 kcal/mol | -0.226 ± 0.33 kcal/mol
SAGGSPNIQVNVERDPKDGYIKFSITVPPGAPNMKIKIAIFENDKIVEKEEITMPPGKTTEYTFKIKSAGGS [r16_412_TrROS] | 4.13 ± 0.065 kcal/mol | 3.6 ± 0.38 kcal/mol | 3.29 ± 0.16 kcal/mol
SAGGSPPDNFKMEPIPLRFPNGWKITVMVMRNPDDGRPYVSVEIEPPNDGKEVKFMMPADDLKDFISAGGSA [r2_366_TrROS] | 1.64 ± 0.23 kcal/mol | 1.66 ± 0.19 kcal/mol | 1.5 ± 0.054 kcal/mol
SAGGSPPPVEVTPITHINGGEPVPTRVETYPDGTVTVHITLPDGSSGTLPAEELAELLAAPGSLGDFSAGGS [r16_105_JUSTAS] | -0.455 ± 0.033 kcal/mol | 0.805 ± 0.045 kcal/mol | 1.53 ± 0.071 kcal/mol
SAGGSPRLELTVTIPGLGLPVTVRTESVDPVRGYVTATLDFPVPGYRATLVFDPVTGRVYARVEPASAGGSA [r2_147_TrMRF] | 3.13 ± 0.062 kcal/mol | 2.85 ± 0.12 kcal/mol | 2.34 ± 0.04 kcal/mol
SAGGSPSITVSESSDPATGTRTLTITVPSSAPSATLNIVVSGSGPPVSSKTVTVPPGTTVTITYTTTSAGGS [r16_412_JUSTAS] | 2.84 ± 0.049 kcal/mol | 2.61 ± 0.056 kcal/mol | 2.2 ± 0.06 kcal/mol
SAGGSPSTARTVELEFNPNEVTLEKIKELLEELGFKGITSITVESTPDSLTITLTDPNGAPSVVRVISAGGS [r8_86_JUSTAS] | 2.66 ± 0.075 kcal/mol | 2.43 ± 0.047 kcal/mol | 2.05 ± 0.049 kcal/mol
